{"source": "paper PMC3789969", "about": "“The Allosteric Role of the AAA^+ Domain of ChlD Protein from the Magnesium Chelatase of Synechocystis Species PCC 6803*” (The Journal of Biological Chemistry, 2013)", "binders": {"B1": {"name": "ChlI protein of the magnesium chelatase of Synechocystis sp. PCC 6803 (natural protein, UniProt P51634 1-357, looked up)", "chain": "MTATLAAPSKTRRVVFPFTAIVGQDEMKLALLLNVIDPKIGGVMIMGDRGTGKSTTIRALADLLPEIEVVANDPFNSSPSDPEMMSEEVRIRVDSQEPLSIVKKKVTMVDLPLGATEDRVCGTIDIEKALSEGVKAFEPGLLAKANRGILYVDEVNLLDDHLVDVLLDSAAGGWNTVEREGISIRHPARFVLVGSGNPEEGELRPQLLDRFGMHAEIRTVREPELRVKIVEQRTEFDQNPHPFCDQYQTEQEALQAKIVNAQNLLPQVTIDYDYRVKVSEVCAELDVDGLRGDIVTNRAAKALAAFEGRTEVTVDDISRVIVLCLRHRLRKDPLESIDSGSKVEKVFKRVFGVVDEA", "notes": "Magnesium chelatase subunit ChlI, Synechocystis sp; PCC 6803; no tag is named for ChlI; also called wild type ChlI; source: BL21(DE3), vector pET9a-ChlI, autoinducing medium ZYM-5052, purified"}}, "details_in_all_cases": "both partners purified", "key": {"[1]": {"molecular_target": "T1, His6-ChlD, wild type, of the magnesium chelatase of Synechocystis sp. PCC 6803 (Synechocystis sp. PCC 6803, UniProt P72772 1-676)", "T1 construct": "Magnesium chelatase subunit ChlD, Synechocystis sp; PCC 6803; also called wild type ChlD; wild type His6-ChlD; source: Rosetta2(DE3) pLysS, vector pET9a-His6ChlD, purified", "test": "chelatase assembly titration (steady-state enzyme activity); apparent; ChlI titrated against 0.1 μM His6-ChlD with 0.4 μM ChlH, steady-state rate of MgDIX formation fitted to Equation 3; 50 mM MOPS/KOH, 0.3 M glycerol, 1 mM DTT, 10 mM free Mg2+, I = 0.1 with KCl, 8 μM DIX, pH 7.7, 34 °C"}, "[2]": {"molecular_target": "T2, His6-ChlD (R289A), Sensor II mutant (Synechocystis sp. PCC 6803, UniProt P72772 1-676, R289A)", "T2 construct": "Magnesium chelatase subunit ChlD, Synechocystis sp; PCC 6803, with R289A removing the Sensor II arginine; Same construct as m2 with one point mutation; also called R289A mutant; Sensor II arginine mutant; source: Rosetta2(DE3) pLysS, site-directed mutant (QuikChange) of pET9a-His6ChlD, purified", "T2 sequence (P72772 whole entry R289A)": "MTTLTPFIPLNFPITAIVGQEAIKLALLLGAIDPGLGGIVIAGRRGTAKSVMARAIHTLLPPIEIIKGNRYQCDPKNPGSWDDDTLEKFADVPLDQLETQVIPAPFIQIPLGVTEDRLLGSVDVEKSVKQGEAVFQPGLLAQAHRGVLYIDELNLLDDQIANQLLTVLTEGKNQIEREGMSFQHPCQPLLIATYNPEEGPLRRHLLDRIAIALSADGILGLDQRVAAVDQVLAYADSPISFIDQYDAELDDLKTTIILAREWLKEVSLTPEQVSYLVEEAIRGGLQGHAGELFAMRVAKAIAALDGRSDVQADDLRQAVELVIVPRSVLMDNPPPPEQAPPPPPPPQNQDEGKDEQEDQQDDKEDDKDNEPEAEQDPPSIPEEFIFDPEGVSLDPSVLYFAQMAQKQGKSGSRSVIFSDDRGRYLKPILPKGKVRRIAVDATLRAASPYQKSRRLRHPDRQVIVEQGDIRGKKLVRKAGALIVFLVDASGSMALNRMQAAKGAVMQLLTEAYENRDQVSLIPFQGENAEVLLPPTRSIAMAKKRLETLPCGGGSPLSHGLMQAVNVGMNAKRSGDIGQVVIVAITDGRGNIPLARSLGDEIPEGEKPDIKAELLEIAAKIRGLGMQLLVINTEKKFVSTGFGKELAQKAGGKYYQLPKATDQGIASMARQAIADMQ", "test": "chelatase assembly titration (steady-state enzyme activity); apparent; ChlI titrated against 0.1 μM His6-ChlD with 0.4 μM ChlH, steady-state rate of MgDIX formation fitted to Equation 3; 50 mM MOPS/KOH, 0.3 M glycerol, 1 mM DTT, 10 mM free Mg2+, I = 0.1 with KCl, 8 μM DIX, pH 7.7, 34 °C"}, "[3]": {"molecular_target": "T3, His6-ChlD (E152Q), Walker B mutant (Synechocystis sp. PCC 6803, UniProt P72772 1-676, E152Q)", "T3 construct": "Magnesium chelatase subunit ChlD, Synechocystis sp; PCC 6803, with E152Q in the Walker B motif; Same construct as m2 with one point mutation; also called E152Q mutant; source: Rosetta2(DE3) pLysS, site-directed mutant (QuikChange) of pET9a-His6ChlD, purified", "T3 sequence (P72772 whole entry E152Q)": "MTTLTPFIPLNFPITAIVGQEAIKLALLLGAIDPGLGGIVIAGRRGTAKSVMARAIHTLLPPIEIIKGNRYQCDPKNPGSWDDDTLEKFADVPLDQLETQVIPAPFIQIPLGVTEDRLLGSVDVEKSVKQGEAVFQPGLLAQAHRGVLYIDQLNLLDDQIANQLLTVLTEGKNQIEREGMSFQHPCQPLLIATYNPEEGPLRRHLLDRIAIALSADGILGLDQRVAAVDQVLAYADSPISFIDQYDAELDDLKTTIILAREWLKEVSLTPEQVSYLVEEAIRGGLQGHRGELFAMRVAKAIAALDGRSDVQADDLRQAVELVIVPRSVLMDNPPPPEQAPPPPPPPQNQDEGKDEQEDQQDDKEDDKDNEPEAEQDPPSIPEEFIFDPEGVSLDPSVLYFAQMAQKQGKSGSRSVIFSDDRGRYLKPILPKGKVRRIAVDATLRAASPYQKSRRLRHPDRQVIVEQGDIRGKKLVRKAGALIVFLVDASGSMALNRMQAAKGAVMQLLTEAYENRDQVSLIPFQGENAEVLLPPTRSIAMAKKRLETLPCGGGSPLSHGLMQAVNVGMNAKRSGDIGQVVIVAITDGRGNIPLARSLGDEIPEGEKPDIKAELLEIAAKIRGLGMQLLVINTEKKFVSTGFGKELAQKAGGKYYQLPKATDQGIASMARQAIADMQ", "test": "chelatase assembly titration (steady-state enzyme activity); apparent; ChlI titrated against 0.1 μM His6-ChlD with 0.4 μM ChlH, steady-state rate of MgDIX formation fitted to Equation 3; 50 mM MOPS/KOH, 0.3 M glycerol, 1 mM DTT, 10 mM free Mg2+, I = 0.1 with KCl, 8 μM DIX, pH 7.7, 34 °C"}, "[4]": {"molecular_target": "T4, His6-ChlD (R208A), arginine finger mutant (Synechocystis sp. PCC 6803, UniProt P72772 1-676, R208A)", "T4 construct": "Magnesium chelatase subunit ChlD, Synechocystis sp; PCC 6803, with R208A removing the arginine finger; Same construct as m2 with one point mutation; also called R208A mutant; source: Rosetta2(DE3) pLysS, site-directed mutant (QuikChange) of pET9a-His6ChlD, purified", "T4 sequence (P72772 whole entry R208A)": "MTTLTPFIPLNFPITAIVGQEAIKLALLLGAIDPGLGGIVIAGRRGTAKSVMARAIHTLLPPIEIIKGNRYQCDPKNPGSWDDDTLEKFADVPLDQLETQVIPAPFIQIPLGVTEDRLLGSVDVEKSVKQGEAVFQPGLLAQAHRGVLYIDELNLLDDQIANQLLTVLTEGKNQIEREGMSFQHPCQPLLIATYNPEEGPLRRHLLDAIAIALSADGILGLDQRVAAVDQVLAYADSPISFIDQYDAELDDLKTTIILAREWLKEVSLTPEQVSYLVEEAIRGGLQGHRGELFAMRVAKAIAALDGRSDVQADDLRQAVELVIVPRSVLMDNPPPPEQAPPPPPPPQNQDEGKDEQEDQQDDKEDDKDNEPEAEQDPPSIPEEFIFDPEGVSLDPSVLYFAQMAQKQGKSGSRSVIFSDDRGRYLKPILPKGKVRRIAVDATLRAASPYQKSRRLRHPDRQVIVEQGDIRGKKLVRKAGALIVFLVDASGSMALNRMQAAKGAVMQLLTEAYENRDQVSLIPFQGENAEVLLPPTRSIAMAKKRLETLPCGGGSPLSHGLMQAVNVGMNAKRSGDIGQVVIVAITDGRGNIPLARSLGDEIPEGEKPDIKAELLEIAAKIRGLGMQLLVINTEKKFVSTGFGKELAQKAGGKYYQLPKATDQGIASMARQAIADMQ", "test": "chelatase assembly titration (steady-state enzyme activity); apparent; ChlI titrated against 0.1 μM His6-ChlD with 0.4 μM ChlH, steady-state rate of MgDIX formation fitted to Equation 3; 50 mM MOPS/KOH, 0.3 M glycerol, 1 mM DTT, 10 mM free Mg2+, I = 0.1 with KCl, 8 μM DIX, pH 7.7, 34 °C"}, "[5]": {"molecular_target": "T5, His6-ChlD (K49A), Walker A mutant (Synechocystis sp. PCC 6803, UniProt P72772 1-676, K49A)", "T5 construct": "Magnesium chelatase subunit ChlD, Synechocystis sp; PCC 6803, with K49A in the Walker A motif; Same construct as m2 with one point mutation; also called K49A mutant; source: Rosetta2(DE3) pLysS, site-directed mutant (QuikChange) of pET9a-His6ChlD, purified", "T5 sequence (P72772 whole entry K49A)": "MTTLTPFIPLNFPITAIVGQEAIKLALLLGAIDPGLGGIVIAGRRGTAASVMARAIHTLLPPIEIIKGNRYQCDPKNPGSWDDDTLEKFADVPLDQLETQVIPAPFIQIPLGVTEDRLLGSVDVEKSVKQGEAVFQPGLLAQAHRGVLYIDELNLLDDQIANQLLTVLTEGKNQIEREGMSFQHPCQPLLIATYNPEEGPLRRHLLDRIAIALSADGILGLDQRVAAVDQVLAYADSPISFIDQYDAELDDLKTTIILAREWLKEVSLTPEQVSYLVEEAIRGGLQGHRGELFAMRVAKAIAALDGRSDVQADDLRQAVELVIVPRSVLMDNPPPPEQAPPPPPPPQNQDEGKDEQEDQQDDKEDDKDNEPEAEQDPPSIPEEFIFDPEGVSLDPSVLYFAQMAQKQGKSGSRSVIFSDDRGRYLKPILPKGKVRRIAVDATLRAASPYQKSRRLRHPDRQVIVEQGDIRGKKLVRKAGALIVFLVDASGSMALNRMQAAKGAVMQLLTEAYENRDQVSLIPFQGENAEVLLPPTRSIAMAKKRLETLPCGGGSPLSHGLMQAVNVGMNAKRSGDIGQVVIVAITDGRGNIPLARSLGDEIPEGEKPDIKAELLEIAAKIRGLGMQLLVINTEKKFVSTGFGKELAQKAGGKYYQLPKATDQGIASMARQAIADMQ", "test": "pull-down; co-purification on Ni(II) chelating Sepharose through His6-ChlD; 2 μM ChlD and 2 μM ChlI, with nucleotide (methods: 5 mM ADP; legend: ATP), 15 mM MgCl2, 50 mM Tricine, 0.3 M glycerol, pH 7.9, room temperature; SDS-PAGE of the resin"}}, "data": [{"binder": "B1", "values": [{"measurement": "Kd", "setting": "[1]", "value": 0.17, "unit": "nM"}, {"measurement": "nd (concentration of binding sites for ChlI)", "setting": "[1]", "value": 0.23, "unit": "µM"}, {"measurement": "Kd", "setting": "[2]", "value": 52, "unit": "nM"}, {"measurement": "nd (concentration of binding sites for ChlI)", "setting": "[2]", "value": 0.19, "unit": "µM"}, {"measurement": "Kd", "setting": "[3]", "value": 0.35, "unit": "nM"}, {"measurement": "nd (concentration of binding sites for ChlI)", "setting": "[3]", "value": 0.24, "unit": "µM"}, {"measurement": "Kd", "setting": "[4]", "value": 14, "unit": "nM"}, {"measurement": "nd (concentration of binding sites for ChlI)", "setting": "[4]", "value": 0.2, "unit": "µM"}, {"measurement": "binding result", "setting": "[5]", "value": "binds"}]}]}
